From publication PMC2212354
pIC50: −log10 of the molar value.

How the values were obtained:
[1] = target: CXCR3, stably expressed on HEK293 cells (human) (UniProt P49682)
[2] = target: CXCR3, stably expressed on HEK293 cells (human) (UniProt P49682); experiment: radioligand binding

Sequence of UniProt P49682 (P49682 whole entry): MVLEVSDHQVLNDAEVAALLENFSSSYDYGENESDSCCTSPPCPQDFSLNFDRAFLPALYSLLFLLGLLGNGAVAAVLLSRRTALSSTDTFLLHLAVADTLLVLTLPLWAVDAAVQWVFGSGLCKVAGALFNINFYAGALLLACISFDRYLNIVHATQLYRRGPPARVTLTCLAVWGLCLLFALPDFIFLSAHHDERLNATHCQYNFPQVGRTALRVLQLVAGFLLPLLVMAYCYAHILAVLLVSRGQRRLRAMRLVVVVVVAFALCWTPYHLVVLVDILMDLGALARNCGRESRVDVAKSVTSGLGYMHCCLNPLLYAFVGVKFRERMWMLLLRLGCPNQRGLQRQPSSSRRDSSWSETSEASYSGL

EC50 of intracellular calcium mobilization in 300-19 CXCR3 transfectants [1] | intracellular calcium mobilized in 300-19 CXCR3 transfectants (maximum) [1] | pIC50 [2] | radiolabeled I-TAC bound (cpm) [2] | KD, high affinity site (Scatchard) [2] | KD, low affinity site (Scatchard) [2] | Substance
50 nM | 1000 nM | 6.52 |  |  |  | IFN-γ–induced human monokine (HuMig), recombinant, unlabeled (from UniProt Q07325 23-125) (ligand)
10 nM | 1000 nM | 7.15 |  |  |  | IFN-γ–inducible 10-kD protein (IP-10), recombinant, unlabeled (from UniProt P02778 22-98) (ligand)
 |  |  | 5980 cpm |  |  | 125I-iodinated I-TAC (radiolabeled synthetic mature I-TAC) (from UniProt O14625 22-94) (ligand)
1 nM |  | 9.00 |  | 0.3 nM | 36 nM | I-TAC (interferon-inducible T cell alpha chemoattractant), chemically synthesized predicted mature polypeptide, unlabeled (from UniProt O14625 22-94) (ligand)
